Measurements: paper PMC8232969 (Cell, 2021)

B1: DH1041 Fab (Fab, V domains shown)
VH: EVQLVESGGGLVQPGGSLRLSCAASGVTFSSYWMSWVRQAPGKGLEWVANIRQDGSEKYSVDSVKGRFTISRDNAKNSLYLQMNSLRAEDTAVYYCARARRADNSGYYGFHFDCWGQGTLVTVSS
VL: QSVLTQPPSVSGAPGQRVTISCTGSSSNIGAGYDVHWYQQLPGTAPKLLIYGNNNRPSGVPDRFSDSKSGTSASLAITRLQAEDEADYYCQSYDSSLSGWVFGGGTKLTVL
B2: DH1047 Fab (Fab, V domains shown)
VH: QVQLVQSGAEVKKPGASVQVSCQASANTFTNHYIHWVRQAPGQGLEWMGIIYPTGGNTIYAQGFQGRVTMTRDTSLNTIYLELSSLRSEDTAVYYCARDVRVDDSWSGYDLLSGGTYFDYWGQGTLVTVSS
VL: not shown

Target: SARS-CoV-2 Spike-2P (stabilized S ectodomain trimer) (SARS-CoV-2, UniProt P0DTC2)
Experiment: cryo-EM structure

Binder	stoichiometry N [Fabs per S-2P trimer]
B1	3
B2	3
